We go through 2 molecules from PMC7153000, “Radiosynthesis, Biological Evaluation, and Preclinical Study of a ^68Ga-Labeled Cyclic RGD Peptide as an Early Diagnostic Agent for Overexpressed αvβ3 Integrin Receptors in Non-Small-Cell Lung Cancer” (Contrast Media & Molecular Imaging, 2020).

In general, logD refers to lipophilicity at a set pH, counting ionised and neutral species. A lower logD goes with lower lipophilicity. As a reminder, the fraction unbound is free concentration divided by total concentration. A word on the Kd: it is the constant that tells how readily two partners part at equilibrium.

Data set [1] is described as follows: physchem. The class given is physicochemical. The settings on record: pH 7.4. As for the experimental part: In a 5 ml Eppendorf tube, 100 μl of the radiolabelled peptide, 0.99 ml of PBS, pH 7.4, and 1 ml n-octanol were mixed. After intense vortexing for 8 min, the two layers were separated by centrifugation. Then, 500 μl aliquots of aqueous and organic layers were transferred to a new tube, radioactivity was measured in a well-type gamma counter (Delshid Gamma counter, Tehran, Iran), and partition coefficient (log P) values were calculated (n = 3).

Data set [2] deals with A549 tumor. On the set-up: species or system BALB/c mice. Particulars: mouse, in vivo. As for the experimental part: 100 μg of [^68Ga]Ga-DOTA-E(cRGDfK)2 formulated in 100 μL saline was injected via the tail vein of 3 groups of 3 BALB/c mice. At 30, 60, and 90 min postinjection, mice were euthanized using a lethal dose of ketamine/xylazine, and blood was collected from the heart using a preheparinised syringe. Tumor and normal organs were excised, washed, weighed, and the radioactivity of each organ was determined using a well-type gamma counter. The organ uptake was measured as percent of the injected dose per gram of organ tissue (%ID/g). A blocking experiment was performed in the presence of a 500-fold excess of unlabeled DOTA-E(cRGDfK)2 30 min before [^68Ga]Ga-DOTA-E(cRGDfK)2 injection.
6–8 weeks female BALB/c mice (with body weights of 20–25 g) were purchased from Royan Insitute (Amol, Iran). Animals were housed in wire cages under controlled conditions of temperature at 25°C, relative humidity around 50%, and 12/12 h light/dark cycles with food, and water was given ad libitum. 2 × 10^6 cell suspensions of human lung adenocarcinoma A549 in 100 μl PBS were injected subcutaneously in the right dorsal flank of each mouse. Palpable tumor diameter was measured using digital calipers twice weekly. When tumor size reached a mean tumor volume of 50–100 mm^3, animals received a tail vein injection of 740 kBq of [^68Ga]Ga-DOTA-E(cRGDfK)2 in 100 μl normal saline. […]

Data set [3] in a line: in vitro. Format: in vitro ADME. The settings on record: human, plasma. The method, then:
The protein binding properties of [^68Ga]Ga-DOTA-E(cRGDfK)2 in blood were investigated by protein precipitation. 1ml of the labeled complex and 3ml of human plasma were mixed and incubated for 1 hour at 37°C. Then, an equal volume of 10% trichloroacetic acid (TCA) was added, and samples were centrifuged at 3,000 rpm for 10 min […]. Precipitate was resuspended in 5% TCA and centrifuged at 3,000 rpm for 10 min. Precipitate and the supernatant fractions were analyzed for radioactivity in a gamma counter. Protein binding of [^68Ga]Ga-DOTA-E(cRGDfK)2 was expressed as the fraction of radioactivity bound to the protein, in percentage of the total radioactivity.

Data set [4] has as its target integrin αvβ3. Particulars: cRGDfK as reference; cited from earlier work. The source says:
Based on previous studies, multimeric cyclic RGD has higher (20–100 more) αvβ3 binding affinity than its monomeric alternatives. […] Many other works reported higher dissociation constant or lower affinity.

Molecule `N=C(N)NCCC[C@@H]1NC(=O)[C@H](CCCCNC(=O)CC[C@H](NC(=O)CN2CCN(CC(=O)O)CCN(CC(=O)O)CCN(CC(=O)O)CC2)C(=O)NCCCC[C@@H]2NC(=O)[C@@H](Cc3ccccc3)NC(=O)[C@H](CC(=O)O)NC(=O)CNC(=O)[C@H](CCCNC(=N)N)NC2=O)NC(=O)[C@@H](Cc2ccccc2)NC(=O)[C@H](CC(=O)O)NC(=O)CNC1=O` [[^68Ga]Ga-DOTA-E(cRGDfK)2, metal not drawn] returned a logD in data set [1] of -3.97 ± 0.13. Moreover, in data set [2], the Clearance result was “fast and via the renal system”; the “Uptake of radioactivity in the kidney and intestine” value is “moderate uptake”. In data set [3] (1 h), the “In vitro protein binding” value was found to be 2.88%. Besides, the fraction unbound at 1 h in data set [3] (In vitro protein binding) was over 0.95.
cRGDfK: the Kd in data set [4] was 1.3 µM.
